This note sets out measurements from the RNAGym collection of RNA variant scans (doi:10.7554/elife.80360).

The chains are these.
B1: Hammerhead Ribozyme (parent)
chain: ACCGGAUGUGCUUUCCGGUCUGAUGAGUCCGUGAGGACGAAACAG

The data set covers variants of B1. Briefly: self-cleavage, relative activity (ratio to wild type); higher = more cleavage; co-transcriptional.
On to C3G G18A, for which the self-cleavage worked out at 0.323.
Consider C3G G18C, for which the self-cleavage stood at 0.335.
In the case of C3G G18U, the self-cleavage is 0.535.
The result for C3U C43A reads 0.344; that for C3U C43U, 0.492; that for C3U C43G, 0.385.
C3G G33A: the self-cleavage amounted to 0.577.
On to C3G G33U, for which the self-cleavage is 0.591.
As to C3G G33C, the self-cleavage is 0.468.
On to C3A G39U, for which the self-cleavage was determined as 0.235.
C3A G39A: the self-cleavage came out at 0.277.
With C3A G39C, the self-cleavage turned out to be 0.282.
As for C3G G8U, the self-cleavage was found to be 0.656.
For the variant C3G G8C, the self-cleavage turned out to be 0.452.
The result for C3G G8A reads 0.406; that for C3G U9G, 0.407.
Turning to C3G U9C, the self-cleavage worked out at 0.574.
Turning to C3G U9A, the self-cleavage came to 0.411.
Take C3G C20A: the self-cleavage stood at 0.295.
For the variant C3G C20U, the self-cleavage is 0.26.
As for C3G C20G, the self-cleavage is 0.317.
C3A G45A: the self-cleavage was 0.358.
Under C3A G45U stands 0.448; under C3A G45C, 0.355; under C3A G33C, 0.741.
The result for C3A G33U reads 0.733.
The result for C3A G33A reads 0.674.
On to C3U A34U, for which the self-cleavage amounted to 0.947.
Under C3U A34C stands 0.851; under C3U A34G, 0.91; under C3U U28A, 0.448.
In the case of C3U U28G, the self-cleavage came out at 0.505.
As for C3U U28C, the self-cleavage came out at 0.854.
As to C3G G10C, the self-cleavage was 0.52.
For the variant C3G G10A, the self-cleavage came to 0.771.
In the case of C3G G10U, the self-cleavage worked out at 0.638.
On to C3U U24A, for which the self-cleavage was determined as 1.24.
Take C3U U24G: the self-cleavage was found to be 0.945.
For C3U U24C, the self-cleavage was determined as 0.956.
As for C3U C16G, the self-cleavage worked out at 0.492.
Consider C3U C16A, for which the self-cleavage amounted to 0.476.
On to C3U C16U, for which the self-cleavage worked out at 0.955.
Consider C3U G39C, for which the self-cleavage came to 0.462.
Under C3U G39U stands 0.343.
Regarding C3U G39A, the self-cleavage amounted to 0.309.
Regarding G4A A6G, the self-cleavage is 0.355.
The result for G4A A6C reads 0.232; that for G4A A6U, 0.377; that for C3A U19C, 0.277.
For the variant C3A U19A, the self-cleavage was determined as 0.316.
In the case of C3A U19G, the self-cleavage came out at 0.296.
For the variant C3A G27C, the self-cleavage was 0.422.
Under C3A G27A stands 0.365.
C3A G27U: the self-cleavage worked out at 0.305.
The result for C3G G27U reads 0.265; that for C3G G27C, 0.284; that for C3G G27A, 0.317.
As for C3U A44C, the self-cleavage worked out at 0.522.
Turning to C3U A44G, the self-cleavage amounted to 1.49.
Under C3U A44U stands 0.592; under C3G G5A, 0.57; under C3G G5C, 0.268.
On to C3G G5U, for which the self-cleavage was found to be 0.305.
Under C3A U9G stands 0.327.
Turning to C3A U9A, the self-cleavage is 0.476.
On to C3A U9C, for which the self-cleavage was 0.756.
The result for C3U A23G reads 0.331; that for C3U A23C, 0.491.
Regarding C3U A23U, the self-cleavage is 0.347.
Regarding C3G A40C, the self-cleavage stood at 0.284.
For the variant C3G A40U, the self-cleavage turned out to be 0.309.
In the case of C3G A40G, the self-cleavage was found to be 0.341.
As to C3G C38A, the self-cleavage came to 0.279.
The result for C3G C38U reads 0.37; that for C3G C38G, 0.279.
The result for C3G G22C reads 0.292; that for C3G G22U, 0.276.
As to C3G G22A, the self-cleavage was found to be 0.304.
For C3G U19C, the self-cleavage was 0.31.
As to C3G U19A, the self-cleavage turned out to be 0.265.
C3G U19G: the self-cleavage stood at 0.306.
Regarding C3A U13G, the self-cleavage turned out to be 0.847.
For the variant C3A U13A, the self-cleavage was determined as 1.33.
Consider C3A U13C, for which the self-cleavage came out at 0.963.
For the variant C3U U12A, the self-cleavage came out at 1.04.
As to C3U U12G, the self-cleavage worked out at 0.843.
As for C3U U12C, the self-cleavage came out at 0.99.
The result for C3U U21C reads 0.731; that for C3U U21A, 0.747.
On to C3U U21G, for which the self-cleavage amounted to 0.558.
The result for C3G A44C reads 0.374.
Take C3G A44U: the self-cleavage was found to be 0.32.
For the variant C3G A44G, the self-cleavage worked out at 0.667.
For C3U U32G, the self-cleavage stood at 0.452.
Turning to C3U U32C, the self-cleavage was found to be 0.962.
For the variant C3U U32A, the self-cleavage stood at 0.95.
For C3U C15A, the self-cleavage was 0.486.
Under C3U C15G stands 0.382; under C3U C15U, 0.984; under C3U U13A, 1.1.
In the case of C3U U13C, the self-cleavage was 1.33.
As to C3U U13G, the self-cleavage turned out to be 0.866.
Consider C3U U19C, for which the self-cleavage turned out to be 0.539.
As for C3U U19G, the self-cleavage stood at 0.38.
Under C3U U19A stands 0.385; under C3A G8A, 0.629; under C3A G8U, 0.902.
As for C3A G8C, the self-cleavage stood at 0.467.
Under C3G U21G stands 0.298; under C3G U21C, 0.413; under C3G U21A, 0.236.
For C3G U32A, the self-cleavage is 0.639.
C3G U32C: the self-cleavage was found to be 0.433.
Under C3G U32G stands 0.36.
As for C3A U14A, the self-cleavage is 0.422.
For the variant C3A U14G, the self-cleavage amounted to 0.672.
Take C3A U14C: the self-cleavage came to 0.436.
For C3A U24C, the self-cleavage was 0.94.
Take C3A U24A: the self-cleavage is 0.811.
For C3A U24G, the self-cleavage is 0.574.
For the variant C3U G18C, the self-cleavage is 0.472.
Under C3U G18A stands 0.412; under C3U G18U, 0.453.
For C3G, the self-cleavage stood at 0.537.
With C3U, the self-cleavage turned out to be 1.03.
Consider C3A G31C, for which the self-cleavage was 0.791.
C3A G31U: the self-cleavage stood at 1.05.
Take C3A G31A: the self-cleavage was 0.912.
As for C3A G10U, the self-cleavage amounted to 0.921.
Regarding C3A G10A, the self-cleavage came out at 0.897.
For the variant C3A G10C, the self-cleavage came out at 0.587.
For C3G U24C, the self-cleavage worked out at 0.477.
For C3G U24G, the self-cleavage came out at 0.44.
With C3G U24A, the self-cleavage is 0.511.
Consider C3U G25U, for which the self-cleavage was found to be 0.345.
Consider C3U G25C, for which the self-cleavage was determined as 0.315.
C3U G25A: the self-cleavage was 0.368.
The result for C3U A6G reads 0.747; that for C3U A6C, 0.437.
For C3U A6U, the self-cleavage stood at 0.609.
As for C3G C16G, the self-cleavage is 0.258.
In the case of C3G C16A, the self-cleavage was determined as 0.39.
For the variant C3G C16U, the self-cleavage came out at 0.327.
As for C3U A40G, the self-cleavage was 0.34.
For C3U A40C, the self-cleavage amounted to 0.469.
Consider C3U A40U, for which the self-cleavage was determined as 0.36.
In the case of C3G C43U, the self-cleavage was 0.272.
As to C3G C43A, the self-cleavage turned out to be 0.318.
Consider C3G C43G, for which the self-cleavage came to 0.273.
For C3G C29U, the self-cleavage worked out at 0.418.
C3G C29G: the self-cleavage worked out at 0.345.
Turning to C3G C29A, the self-cleavage is 0.324.
Consider C3U G33C, for which the self-cleavage came to 0.957.
Turning to C3U G33A, the self-cleavage stood at 0.953.
Consider C3U G33U, for which the self-cleavage is 0.991.
Take C3G U12C: the self-cleavage worked out at 0.394.
As to C3G U12G, the self-cleavage is 0.356.
As for C3G U12A, the self-cleavage was found to be 0.352.
Turning to G4A A34C, the self-cleavage turned out to be 0.35.
C3G U7C: the self-cleavage turned out to be 0.462.
Under C3G U7G stands 0.625; under C3G U7A, 0.471; under C3G U13G, 0.628.
On to C3G U13A, for which the self-cleavage stood at 1.02.
C3G U13C: the self-cleavage worked out at 0.655.
Regarding C3U G36A, the self-cleavage was found to be 0.617.
Under C3U G36C stands 0.424.
